Data published in patent publication US20220025029A1 (Regeneron, published 2022).

B1: H4H2864P (antibody, human IgG4, V domains shown)
VH: EVQLVESGGGLAQPGGSLRLSCAASGFTFNNYAMTWVRQAPGKGLDWVSAISDSGRSTFSADSVKGRFTISRDNSKNTLYLQMDSLRAEDTALYYCAKHRNWNYPVFDYWGQGTLVTVSS
VL: DIQLTQSPSFLSASVGDRVTITCWASQGISSYLAWYQQKPGKAPKLLIYSASTLQSGVPSRFSGSGSGTEFTLTISSLQPEDFATYYCQQLNSYPFTFGPGTKVDIK
notes: human IgG4 Fc (H4H prefix)
B2: H4H1232N (antibody, human IgG4, V domains shown)
VH: EVQLVESGGGLVKPGGSLRLSCAASGFTFRNYNINWVRQAPGKGLEWVSLISGSSSYIYYADSVKGRFTVSRDNAKNSLYLQMNSLRAEDTAVYYCARRTLSYYVMDVWGQGTTVTVSS
VL: DIQVTQSPSPLSASVGDRVTITCRASQGISNYLAWYQQKPGRVPQLLIYAASTLQSGVPSRFSGSGSGTDFTLTISSLQPEDVATYYCQKYNSAPYTFGQGTKLEIK
notes: human IgG4 Fc (H4H prefix)
B3: H4H1616N (antibody, human IgG4, V domains shown)
VH: EVELLESGGGLVQPGGSLRLSCAASGFTFSSYAMSWVRQAPGKGLEWVSSISGRVGSTHFADSVKGRFTFSRDNSKNTLYLQLSSLRAEDTAVYYCARSRGAAYFDYWGQGTLVTVSS
VL: DIQMTQSPSSLSASVGDRVTITCQANQDISNFLNWYQQRPGKAPNLLIYAASNLETGVPSRFSGSGSGTDFTFTISSLQPEDIATYYCQHYDNFPFTFGPGTKVDIK
notes: human IgG4 Fc (H4H prefix)
B4: H4H2645P (antibody, human IgG4, V domains shown)
VH: EVQLVESGGGLVQPGGSLRLSCAASGFTFSTYAMHWVRQAPGKGLEWVSSISGRGRNSDHADSVKGRFTISRDNSKNTLYLQMNSLRAEDTAVYYCARTEYFHHWGQGTLVTVSS
VL: DIQMTQSPSSLSASVGDRITITCRASQDINNYLAWFQQKPGKAPKSLIYGASSLQSGVPSKFSGSGSGTDFTLTISSLQPEDFATYYCQQYSSYPFTFGPGTKVDIK
notes: human IgG4 Fc (H4H prefix)

molecular target: T1, natural Fel d1 (Indoor Biotech, #NA-FD1-2) (cat, UniProt P30438 23-92; P30440 18-109); experiment: Octet BLI sandwich; nFel d1 pre-complexed with captured mAb-1 H4H1238N (competitor); self-competition value subtracted
T1 construct: Bought natural heterodimeric glycoprotein, chains linked by disulfide bonds; also called nFel d1; nFel d 1
T1 sequence (P30438 other isoform, or with tags, fused parts or gaps, chain 1 of 2): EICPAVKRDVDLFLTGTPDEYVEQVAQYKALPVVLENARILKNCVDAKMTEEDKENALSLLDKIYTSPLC
T1 sequence (P30440 18-109, chain 2 of 2): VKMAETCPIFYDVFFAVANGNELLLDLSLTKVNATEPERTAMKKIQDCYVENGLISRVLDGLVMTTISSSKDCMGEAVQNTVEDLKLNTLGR

Binder	Response of mAb-2 Binding to nFel d1 pre-complexed with mAb-1 [nm]
B1	0.62
B2	0.76
B3	0.43
B4	0.62

molecular target: T1, natural Fel d1 (Indoor Biotech, …); experiment: Octet BLI sandwich; nFel d1 pre-complexed with captured mAb-1 H4H2864P (competitor); self-competition value subtracted

Binder	Response of mAb-2 Binding to nFel d1 pre-complexed with mAb-1 [nm]
B1	0
B2	0.3
B3	0.01
B4	-0.01

molecular target: T1, natural Fel d1 (Indoor Biotech, …); experiment: Octet BLI sandwich; nFel d1 pre-complexed with captured mAb-1 H4H2597P (competitor); self-competition value subtracted

Binder	Response of mAb-2 Binding to nFel d1 pre-complexed with mAb-1 [nm]
B1	0.54
B2	-0.03
B3	0.4
B4	0.55

molecular target: T1, natural Fel d1 (Indoor Biotech, …); experiment: SPR (Biacore), mAb captured, natural Fel d1 injected, 25 C;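 further: rate constants obtained by fitting association and dissociation phases to a one-to-one binding model, with Kd and half-life derived from those rate constants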

Binder	Kd [nM]	koff [s⁻¹]	kon [M⁻¹ s⁻¹]	t1/2 [min]
B1	0.801	0.00135	1.68e+06	9
B2	0.207	0.000331	1.6e+06	35
B3	5.14	0.00124	241000	9
B4	0.459	0.000261	569000	44

molecular target: T1, natural Fel d1 (Indoor Biotech, …); experiment: Octet BLI, mAb captured on anti-hFc tip, 500 nM nFel d1

Binder	Amount of 500 nM nFel d1 Bound [nm]
B1	0.08
B2	0.08
B3	0.09
B4	0.1

molecular target: T1, natural Fel d1 (Indoor Biotech, …); experiment: SPR (Biacore 2000), mAb captured via anti-human Fc, nFel d 1 injected, 25 C

Binder	600 nM nFel d 1 Bound (RU)	Kd [nM]	koff [s⁻¹]	kon [M⁻¹ s⁻¹]	t1/2 [min]
B2	42	0.155	0.000472	3.05e+06	24

molecular target: T1, natural Fel d1 (Indoor Biotech, …); experiment: Octet BLI sandwich; nFel d1 pre-complexed with captured mAb-1 H4H1616N (competitor); self-competition value subtracted

Binder	Response of mAb-2 Binding to nFel d1 pre-complexed with mAb-1 [nm]
B1	-0.01
B2	0.18
B3	0
B4	-0.01

molecular target: T1, natural Fel d1 (Indoor Biotech, …); experiment: Octet BLI sandwich; captured mAb-1 H4H1300N, which did not pre-complex with nFel d1; self-competition value subtracted

Binder	Response of mAb-2 Binding to nFel d1 pre-complexed with mAb-1 [nm]
B1	0.06
B2	0.02
B3	0.06
B4	0.05

molecular target: T1, natural Fel d1 (Indoor Biotech, …); experiment: Octet BLI sandwich; nFel d1 pre-complexed with captured mAb-1 H4H2645P (competitor); self-competition value subtracted

Binder	Response of mAb-2 Binding to nFel d1 pre-complexed with mAb-1 [nm]
B1	-0.01
B3	0.01
B4	0

molecular target: T1, natural Fel d1 (Indoor Biotech, …); experiment: Octet BLI sandwich; nFel d1 pre-complexed with captured mAb-1 H4H1232N (competitor); self-competition value subtracted

Binder	Response of mAb-2 Binding to nFel d1 pre-complexed with mAb-1 [nm]
B1	0.71
B2	0
B3	0.54
B4	0.75

molecular target: T1, natural Fel d1 (Indoor Biotech, …); experiment: Octet BLI sandwich; nFel d1 pre-complexed with captured mAb-1 H4H2636P (competitor); self-competition value subtracted

Binder	Response of mAb-2 Binding to nFel d1 pre-complexed with mAb-1 [nm]
B1	0
B2	0.29
B3	0.01
B4	0
